Measurements from ChEMBL document CHEMBL2074302, “ATP-dependent transport for glucuronides in canalicular plasma membrane vesicles” (Biochem Biophys Res Commun, 1991).

Substrate: O=C(O)[C@H]1O[C@@H](Oc2ccc([N+](=O)[O-])cc2)[C@H](O)[C@@H](O)[C@@H]1O
Assay: TP_TRANSPORTER: uptake in bile canalicular membrane vesicles from Wistar rat
Assay type: functional, cell membranes, Bile canalicular membrane vesicle

B1: ATP-binding cassette sub-family C member 2 (Rattus norvegicus) (protein)
chain: MDKFCNSTFWDLSLLESPEADLPLCFEQTVLVWIPLGFLWLLAPWQLYSVYRSRTKRSSITKFYLAKQVFVVFLLILAAIDLSLALTEDTGQATVPPVRYTNPILYLCTWLLVLAVQHSRQWCVRKNSWFLSLFWILSVLCGVFQFQTLIRALLKDSKSNMAYSYLFFVSYGFQIVLLILTAFSGPSDSTQTPSVTASFLSSITFSWYDRTVLKGYKHPLTLEDVWDIDEGFKTRSVTSKFEAAMTKDLQKARQAFQRRLQKSQRKPEATLHGLNKKQSQSQDVLVLEEAKKKSEKTTKDYPKSWLIKSLFKTFHVVILKSFILKLIHDLLVFLNPQLLKLLIGFVKSSNSYVWFGYICAILMFAVTLIQSFCLQSYFQHCFVLGMCVRTTVMSSIYKKALTLSNLARKQYTIGETVNLMSVDSQKLMDATNYMQLVWSSVIQITLSIFFLWRELGPSILAGVGVMVLLIPVNGVLATKIRNIQVQNMKNKDKRLKIMNEILSGIKILKYFAWEPSFQEQVQGIRKKELKNLLRFGQLQSLLIFILQITPILVSVVTFSVYVLVDSANVLNAEKAFTSITLFNILRFPLSMLPMVTSSILQASVSVDRLERYLGGDDLDTSAIRRVSNFDKAVKFSEASFTWDPDLEATIQDVNLDIKPGQLVAVVGTVGSGKSSLVSAMLGEMENVHGHITIQGSTAYVPQQSWIQNGTIKDNILFGSEYNEKKYQQVLKACALLPDLEILPGGDMAEIGEKGINLSGGQKQRVSLARAAYQDADIYILDDPLSAVDAHVGKHIFNKVVGPNGLLAGKTRIFVTHGIHFLPQVDEIVVLGKGTILEKGSYRDLLDKKGVFARNWKTFMKHSGPEGEATVNNDSEAEDDDDGLIPTMEEIPEDAASLAMRRENSLRRTLSRSSRSSSRRGKSLKNSLKIKNVNVLKEKEKEVEGQKLIKKEFVETGKVKFSIYLKYLQAVGWWSILFIILFYGLNNVAFIGSNLWLSAWTSDSDNLNGTNNSSSHRDMRIGVFGALGLAQGICLLISTLWSIYACRNASKALHGQLLTNILRAPMRFFDTTPTGRIVNRFSGDISTVDDLLPQTLRSWMMCFFGIAGTLVMICMATPVFAIIIIPLSILYISVQVFYVATSRQLRRLDSVTKSPIYSHFSETVTGLPIIRAFEHQQRFLAWNEKQIDINQKCVFSWITSNRWLAIRLELVGNLVVFCSALLLVIYRKTLTGDVVGFVLSNALNITQTLNWLVRMTSEAETNIVAVERISEYINVENEAPWVTDKRPPADWPRHGEIQFNNYQVRYRPELDLVLKGITCNIKSGEKVGVVGRTGAGKSSLTNCLFRILESAGGQIIIDGIDVASIGLHDLRERLTIIPQDPILFSGSLRMNLDPFNKYSDEEVWRALELAHLRSFVSGLQLGLLSEVTEGGDNLSIGQRQLLCLGRAVLRKSKILVLDEATAAVDLETDSLIQTTIRKEFSQCTVITIAHRLHTIMDSDKIMVLDNGKIVEYGSPEELLSNRGSFYLMAKEAGIENVNHTEL
  Km: 20 µM
